Measured values reported in paper doi:10.1101/2025.03.12.642038, “Structural, biophysical and biological analysis and characterisation of IRF4 DNA-binding domain mutations associated with multiple myeloma”.

T1: IRF4 DBD L70V (Homo sapiens, UniProt Q15306 20-132, L70V)
T1 sequence: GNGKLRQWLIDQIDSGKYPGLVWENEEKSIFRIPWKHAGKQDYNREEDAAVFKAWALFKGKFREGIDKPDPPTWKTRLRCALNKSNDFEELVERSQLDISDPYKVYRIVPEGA

T2: IRF4 DBD T95K (Homo sapiens, UniProt Q15306 20-132, T95K)
T2 sequence: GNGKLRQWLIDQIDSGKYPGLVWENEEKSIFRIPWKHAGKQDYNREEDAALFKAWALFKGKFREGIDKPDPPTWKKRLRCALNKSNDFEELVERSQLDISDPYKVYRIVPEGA

T3: IRF4 DBD K123R (Homo sapiens, UniProt Q15306 20-132, K123R)
T3 sequence: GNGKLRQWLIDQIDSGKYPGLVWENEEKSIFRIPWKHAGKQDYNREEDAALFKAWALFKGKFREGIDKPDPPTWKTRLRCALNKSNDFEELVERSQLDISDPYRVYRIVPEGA

T4: IRF4 DBD S114R (Homo sapiens, UniProt Q15306 20-132, S114R)
T4 sequence: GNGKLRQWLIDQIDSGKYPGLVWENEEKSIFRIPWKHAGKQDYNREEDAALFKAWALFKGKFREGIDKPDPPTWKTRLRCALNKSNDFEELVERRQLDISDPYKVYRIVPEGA

T5: IRF4 DBD T95A (Homo sapiens, UniProt Q15306 20-132, T95A)
T5 sequence: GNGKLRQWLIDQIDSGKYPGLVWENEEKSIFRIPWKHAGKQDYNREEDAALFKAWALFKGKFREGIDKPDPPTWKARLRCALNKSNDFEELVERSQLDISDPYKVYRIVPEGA

T6: IRF4 DBD S114N (Homo sapiens, UniProt Q15306 20-132, S114N)
T6 sequence: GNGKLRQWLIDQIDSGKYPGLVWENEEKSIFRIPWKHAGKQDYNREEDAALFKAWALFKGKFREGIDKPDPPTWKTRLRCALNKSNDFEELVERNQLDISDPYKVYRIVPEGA

T7: IRF4 DBD C99R (Homo sapiens, UniProt Q15306 20-132, C99R)
T7 sequence: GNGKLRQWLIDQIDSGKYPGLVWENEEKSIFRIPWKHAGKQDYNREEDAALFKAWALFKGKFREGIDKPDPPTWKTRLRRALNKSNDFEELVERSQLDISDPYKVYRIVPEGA

T8: IRF4 DBD T95R (Homo sapiens, UniProt Q15306 20-132, T95R)
T8 sequence: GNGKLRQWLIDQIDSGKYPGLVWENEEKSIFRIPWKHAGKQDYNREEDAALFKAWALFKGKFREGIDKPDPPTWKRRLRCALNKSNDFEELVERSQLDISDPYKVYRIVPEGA

T9: IRF4 DBD D117A (Homo sapiens, UniProt Q15306 20-132, D117A)
T9 sequence: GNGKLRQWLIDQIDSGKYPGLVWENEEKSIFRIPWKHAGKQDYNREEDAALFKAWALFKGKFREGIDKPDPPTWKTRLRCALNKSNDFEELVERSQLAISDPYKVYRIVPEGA

T10: IRF4 DBD wild-type (Homo sapiens, UniProt Q15306 20-132)
T10 sequence: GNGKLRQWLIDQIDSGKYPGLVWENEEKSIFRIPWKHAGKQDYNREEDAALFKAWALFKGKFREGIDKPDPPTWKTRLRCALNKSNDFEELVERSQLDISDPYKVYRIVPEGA


Tests used:
IRF4 DBD L70V = molecular target: T1, IRF4 DBD L70V; assay: FP; FP: PBS + 0.05% Tween20, 5 nM DNA, 1 h, room temperature; SPR: Biacore S200, SA chip, protein 0.1-4500 nM, running buffer not given in material; errors are SD; conditions: protein: recombinant; tags: N-terminal His8-linker-His8-TEV, cleaved; label: 3' fluorescein (FAM); hairpin, TTTT loop
IRF4 DBD T95K = molecular target: T2, IRF4 DBD T95K; assay: as above; conditions: protein: recombinant; tags: N-terminal His8-linker-His8-TEV, cleaved; label: 3' fluorescein (FAM); hairpin, TTTT loop
IRF4 DBD K123R = molecular target: T3, IRF4 DBD K123R; assay: as above; conditions: protein: recombinant; tags: N-terminal His8-linker-His8-TEV, cleaved; label: 3' fluorescein (FAM); hairpin, TTTT loop
IRF4 DBD S114R = molecular target: T4, IRF4 DBD S114R; assay: as above; conditions: protein: recombinant; tags: N-terminal His8-linker-His8-TEV, cleaved; label: 3' fluorescein (FAM); hairpin, TTTT loop
IRF4 DBD T95A = molecular target: T5, IRF4 DBD T95A; assay: as above; conditions: protein: recombinant; tags: N-terminal His8-linker-His8-TEV, cleaved; label: 3' fluorescein (FAM); hairpin, TTTT loop
IRF4 DBD S114N = molecular target: T6, IRF4 DBD S114N; assay: as above; conditions: protein: recombinant; tags: N-terminal His8-linker-His8-TEV, cleaved; label: 3' fluorescein (FAM); hairpin, TTTT loop
IRF4 DBD C99R [1] = molecular target: T7, IRF4 DBD C99R; assay: as above; conditions: protein: recombinant; tags: N-terminal His8-linker-His8-TEV, cleaved; label: 3' fluorescein (FAM); hairpin, TTTT loop
IRF4 DBD T95R = molecular target: T8, IRF4 DBD T95R; assay: as above; conditions: protein: recombinant; tags: N-terminal His8-linker-His8-TEV, cleaved; label: 3' fluorescein (FAM); hairpin, TTTT loop
IRF4 DBD D117A = molecular target: T9, IRF4 DBD D117A; assay: as above; conditions: protein: recombinant; tags: N-terminal His8-linker-His8-TEV, cleaved; label: 3' fluorescein (FAM); hairpin, TTTT loop
IRF4 DBD wild-type = molecular target: T10, IRF4 DBD wild-type; assay: SPR two-state kinetic; FP: PBS + 0.05% Tween20, 5 nM DNA, 1 h, room temperature; SPR: Biacore S200, SA chip, protein 0.1-4500 nM, running buffer not given in material; errors are SD; conditions: protein: recombinant; tags: N-terminal His8-linker-His8-TEV, cleaved; label: 3' biotin; hairpin, TTTT loop
IRF4 DBD C99R [2] = molecular target: T7, IRF4 DBD C99R; assay: as above; conditions: protein: recombinant; tags: N-terminal His8-linker-His8-TEV, cleaved; label: 3' biotin; hairpin, TTTT loop

| Binder | Kd (IRF4 DBD L70V) [nM] | Kd (IRF4 DBD T95K) [nM] | Kd (IRF4 DBD K123R) [nM] | Kd (IRF4 DBD S114R) [nM] | Kd (IRF4 DBD T95A) [nM] | Kd (IRF4 DBD S114N) [nM] | Kd (IRF4 DBD C99R [1]) [nM] | Kd (IRF4 DBD T95R) [nM] | Kd (IRF4 DBD D117A) [nM] | Kd (IRF4 DBD wild-type) [nM] | Kd (IRF4 DBD C99R [2]) [nM] |
| --- | --- | --- | --- | --- | --- | --- | --- | --- | --- | --- | --- |
| CTTGGTTTCACTTCCTGCGTTTTCGCAGGAAGTGAAACCAAG (structured_DNA) [IRE hairpin (FAM)] | 127 ± 27 | 298 ± 154 | 143 ± 34 | 332 ± 162 | 105 ± 59 | 181 ± 14 | 279 ± 286 | 151 ± 72 | 109 ± 31 |  |  |
| CTTGGTTTCACTTCCTGCGTTTTCGCAGGAAGTGAAACCAAG (structured_DNA) [IRE hairpin (biotin)] |  |  |  |  |  |  |  |  |  | 187 ± 143 | 660 ± 317 |
